This series concerns the molecule itself. In words: cryo-EM structure; single-particle cryo-EM of the native TMC-2 complex isolated from worms (anti-FLAG affinity, SEC, GDN, 1 mM CaCl2); cis-dimeric particles selected.

B1: TMC-2 (transmembrane channel-like protein 2), native, tagged with mVenus-3xFLAG at the endogenous locus (natural protein, C. elegans, UniProt Q11069 1-1203, looked up)
chain: MPKSGAHQPLVRHDTDDGGETGQSVKSLADVSEEEIDSRMSRRSSVIADLLSLFRRSSSVLVRPHTRLGNPNFDDDDDEFDEEDDKEASKDRILKKIQQKKEIIQKLRGQPWYMKRKRRTLKVAQKHLQQQEAKVSKARLYKAEAGRRLTQASRWLDNLKIYLIPWEAKIRKIESHFGSVVSSYFTFHRWVLGVNITITFIMCMFVVIPEWLADSRTQFGDDRYNKTKAIKVMPPAVRARADELSTVWDFGGYFQYSLLFYGFYSKETFFGETIKYRVPVAYFFCNIFILGFSLFIILRKMAANNRRGTLSSGKTQQYLFNWKAFTGWDYTIGNPETAGNVYMANVIKFREAINDDKQKPSDKHPWIRFVARVLTNLFICAMYVFSIWAIMQCGTLKGEHFFAQNATAITISLITLVFPNIFDLLGKIEKLHPRNALRFQLGRVLVLYILNYYTLIYSLMLQLEHLQKEKNASDNPISALGHPGDAIGRTIRETVLPRYPVDNNPHTYYSYAPVTTTPIPATSSWTTVLPDFGPFGVYNPKASVTKDDTVFSSPVVETHMFGPNSDWNETTVNAASPTGATTRASLRMSQGGLCWETIIGQEITKLVTMDLYMTVASIFLIDFLRGLACRYLNLYWPWDLERTFPEYGEFKVAENVLHLVNNQGMIWLGLFFVPLLPMLNNIKLIILMYIRGWAAMTCNVPASQIFRASRSSNFFFALLILFLFLCTLPVGFVIASKTPSKSCGPFGNQSFFYSVITDVLHENLDKTLVNGIKYSLSPGIIIPVLVLLSLVIYFLIAMVTGLSQANQDLSFQLMVERTEEKKKIFELAGGKKKKSKDNTFGKQKPKQLLPPPTKGVSSDDDSQHNRSTAKSVSGRQFVPSLGSVSEVDHSTGEEQSSDSESTTSSLPPKLSLRQRFLVCIGWADPNKYGRHDDIEMEEGGGRLRELSTGSETDSDDEDSEKSNRDMSYRTAIQSFDQNSQSASASSSKSTTTAPSNSEMRIEITENPLHTYITPLRIEKKSSASSSSSSHQPSSSIEKQAARRLLQPISTTHNIRYGVATVENSSQDPTRPPSTDDSLGDPALHEPLWANLNPHSSYTSAMMSPIMNEVMSNDETTDDEKGRLIPDRPPIPHSPRELKRLKREKDQQSESGSKPSTPRPPRFRISMSPPRKPPSEKNDSDSSNRKYEMRVEKSPKKPKKSDND
modifications: N-glycans at N225 and N748
notes: TMC-2, C. elegans, endogenous tmc-2 gene (Wormbase B0416.1a); tag inserted prior to the stop codon; residues M1 to D1203 named; modelled 89-471, 583-813; A 3C (PreScission) site lies between mVenus and 3xFLAG; The complex was captured on anti-FLAG resin by the 3xFLAG tag, which was cut off on elution with 3C protease before SEC, mass spectrometry and cryo-EM; also called TMC-2-mVenus; …
Turning to B1, the stoichiometry N (in general, a count of units in the complex or per binding partner) was found to be 2.
